Where a chain is given by its changes, count along the chain named. Names may count otherwise.
What was measured:
TFEB target genes = assay: qPCR of TFEB target genes after transfection with normal and mutant TFEB plasmids; assay type: cell-based, human; settings: 24 h post-transfection, compared to TFEB(WT), TFEB(S332A) and TFEB(S402A)
From the text: (§1) Asterisks in the graph indicate that the P-value was <0.05.

HeLa cells [1] = assay: Subcellular localization and mobility of mutated TFEB-3xFlag in HeLa cells; assay type: cell-based, human; settings: for TFEB subcellular localization of serine-to-alanine mutants: HeLa cells, Flag immunostaining
Protocol: Cells were transiently transfected with DNA plasmids pRK5-mycPAT1, pCEP4-TFEB-his, pC1G2-TFEB, and p3 x FLAG-CMVTFEB using lipofectamine2000 or LTX (Invitrogen) according to the protocol from manufacturer. Site-direct mutagenesis was performed according to the manufacturer instructions (Stratagene) verifying the correct mutagenesis by sequencing.
Cells were seeded at 50% of confluence in 6 well dishes and serum starved overnight (ON). Normal medium was added the following day either in presence of DMSO or kinase inhibitors. Subcellular fractionation was carried out as previously reported. Briefly, cells were lysed in 0.5 Triton X-100 lysis buffer (50 mM Tris-HCl, 0.5% triton, 137.5 mM NaCl, 10% glycerol, 5 mM EDTA supplemented with fresh protease and phosphatase inhibitors. Supernatant represented cytosolic fraction while nuclear pellet was washed twice and lysed in 0.5 Triton X-100 buffer 0.5% SDS and sonicated.

HeLa cells [2] = assay: Autophagosome number / LC3II level in HeLa cells; assay type: cell-based, human
From the text: Cells or tissues were solubilized in RIPA buffer supplemented with protease (ROCHE) and Phosphatase (SIGMA) inhibitors. From 10 to 30 micrograms were loaded on 4-12% Bis-Tris gel (NUPAGE, Invitrogen), transferred to PVDF membranes and analyzed by western blot using the ECL method (Pierce). The following antibodies were used: LC3 (Novus Biological), FLAG, b-ACTIN, TUBULIN (SIGMA), HA (Covance), H3, ERK1/2, p-ERK1/2, p-AKT, p-70S6K (Cell Signaling), ERK2 (Santa Cruz). Protein levels were quantified by using ImageJ software analysis.

long-lived proteins = assay: Degradation of long-lived proteins; assay type: cell-based; settings: TFEB overexpression
Protocol: Sub-confluent cells were incubated with L-U^14C-serine for 20 h and chased for 1 h with cold media to degrade short-lived proteins. Subsequently cells were incubated with either normal media or starvation media (eventually in the presence of 3-MA) for 4 h. The rate of long-lived protein degradation was calculated from the ratio of soluble radioactivity in the media to that insoluble in the acid-precipitable cell pellet.

[3] = system: MEFs, NSCs, HeLa, and COS-7 cells; assay: Release of lysosomal enzymes in the culture medium; assay type: cell-based; settings: TFEB overexpression; acid phosphatase, beta-galactosidase, beta-hexosaminidase
Protocol: Lysosomal enzymes acid phosphatase, beta-galactosidase, and beta-hexosaminidaseactivities were measured using the appropriate fluorimetric or colorimetric substrates. SGSH activity was measured following protocols described in Fraldi et al., Hum Mol Gen 2007 (33).

LSDs = settings: TFEB overexpression (45); cited from earlier work
[4] = system: autophagy-related genes in HeLa cells; assay: qPCR of autophagy-related genes in TFEB stable overexpressing HeLa cells; assay type: cell-based, human; settings: TFEB stable overexpression
From the text: as §1

[5] = system: HeLa cells stably expressing GFP-mRFP-LC3; assay: RFP-GFP tandem tagged LC3 autophagosome-lysosome fusion assay; assay type: cell-based, human; settings: TFEB overexpressing cells compared to control cells
[6] = system: mouse embryonic fibroblast (MEFs); assay: Electron microscopy of MEFs infected with lentivirus overexpressing TFEB; assay type: cell-based
Protocol: Control and TFEB-overexpressing cells were washed with PBS, and fixed in 1% glutaraldehyde dissolved in 0.2 M Hepes buffer (pH 7.4) for 30 min at room temperature. The cells were then postfixed for 2 h in OsO4. After dehydration in graded series of ethanol, the cells were embedded in Epon 812 (Fluka) and polymerized at 60° C. for 72 h. Thin sections were cut at the Leica EM UC6, counterstained with uranyl acetate and lead citrate. EM images were acquired from thin sections using a Philips Tecnai-12 electron microscope equipped with an ULTRA VIEW CCD digital camera (Philips, Eindhoven, The Netherlands). Quantification of vacuolization was performed using the AnalySIS software (Soft Imaging Systems GmbH, Munster, Germany). Selection of cells for quantification was based on their suitability for stereologic analysis, i.e. only cells sectioned through their central region (detected on the basis of the presence of Golgi membranes) were analyzed.

B1: TFEB(S142A): TFEB variant with serine 142 mutated to alanine (protein, UniProt P19484 1-476, looked up, variant S142A)
Transcription factor EB: MASRIGLRMQLMREQAQQEEQRERMQQQAVMHYMQQQQQQQQQQLGGPPTPAINTPVHFQSPPPVPGEVLKVQSYLENPTSYHLQQSQHQKVREYLSETYGNKFAAHISPAQGSPKPPPAASPGVRAGHVLSSSAGNSAPNAPMAMLHIGSNPERELDDVIDNIMRLDDVLGYINPEMQMPNTLPLSSSHLNVYSSDPQVTASLVGVTSSSCPADLTQKRELTDAESRALAKERQKKDNHNLIERRRRFNINDRIKELGMLIPKANDLDVRWNKGTILKASVDYIRRMQKDLQKSRELENHSRRLEMTNKQLWLRIQELEMQARVHGLPTTSPSGMNMAELAQQVVKQELPSEEGPGEALMLGAEVPDPEPLPALPPQAPLPLPTQPPSPFHHLDFSHSLSFGGREDEGPPGYPEPLAPGHGSPFPSLSKKDLDLMLLDDSLLPLASDPLLSTMSPEASKASSRRSSFSMEEGDVL
modifications: 3xFlag tag
notes: TFEB variant with serine 142 mutated to alanine
expression levels of TFEB target genes (TFEB target genes): increased expression levels | TFEB subcellular localization of serine-to-alanine mutants (HeLa cells [1]): constitutive nuclear localization | nuclear localization of mutant TFEB (HeLa cells [1]; compared to TFEB(WT), TFEB(S332A) and TFEB(S402A)): significantly increased nuclear localization | induction of the autophagic/lysosomal system (autophagosomes, lysosomes, autophagolysosomes) (HeLa cells [2]; compared to wt TFEB): stronger induction

B2: TFEB: transcription factor EB, Seq. Id No. 2, overexpressed from plasmid, lentivirus or stable clone (protein, listed as Homo sapiens)
chain: B1 Transcription factor EB with A142S
degradation of long-lived proteins (long-lived proteins): enhanced | release of lysosomal enzymes in the culture medium [3]: increases the release of lysosomal enzymes | substrate clearance and cellular vacuolization in LSDs (LSDs): able to promote substrate clearance and to rescue cellular vacuolization | number of autophagosomes (LC3 marker) (HeLa cells [2]; stable TFEB overexpression in HeLa cells): increased significantly | AKT1 FOLD INCREASE [4]: 1.2 fold | AMBRA1 FOLD INCREASE [4]: 1.2 fold | APP FOLD INCREASE [4]: 1.4 fold | ARSA FOLD INCREASE [4]: 1.3 fold | ATG3 FOLD INCREASE [4]: 1.2 fold | ATG4A FOLD INCREASE [4]: 1.2 fold | ATG4B FOLD INCREASE [4]: 1.3 fold | ATG4C FOLD INCREASE [4]: 1.1 fold | ATG4D FOLD INCREASE [4]: 1.6 fold | ATG5 FOLD INCREASE [4]: 1.2 fold | ATG7 FOLD INCREASE [4]: 1.2 fold | ATG9A FOLD INCREASE [4]: 1.1 fold | ATG9B FOLD INCREASE [4]: 5.6 fold | ATG10 FOLD INCREASE [4]: 1.1 fold | ATG12 FOLD INCREASE [4]: 1.2 fold | ATG16L1 FOLD INCREASE [4]: −1.2 fold | ATG16L2 FOLD INCREASE [4]: 1.1 fold | BAD FOLD INCREASE [4]: 1.0 fold | BAK1 FOLD INCREASE [4]: 1.4 fold | BAX FOLD INCREASE [4]: 1.2 fold | BCL2 FOLD INCREASE [4]: 1.5 fold | BECN1 FOLD INCREASE [4]: 1.2 fold | BID FOLD INCREASE [4]: 1.2 fold | BNIP3 FOLD INCREASE [4]: 1.1 fold | CLN3 FOLD INCREASE [4]: 1.5 fold | CXCR4 FOLD INCREASE [4]: 1.3 fold | DRAM FOLD INCREASE [4]: 1.8 fold | EIF2AK3 FOLD INCREASE [4]: 1.4 fold | EIF4G1 FOLD INCREASE [4]: 1.3 fold | FAM176A FOLD INCREASE [4]: 1.6 fold | GAA FOLD INCREASE [4]: 1.3 fold | GABARAP FOLD INCREASE [4]: 1.1 fold | GABARAPL1 FOLD INCREASE [4]: 1.0 fold | GABARAPL2 FOLD INCREASE [4]: 1.1 fold | HGS FOLD INCREASE [4]: −1.1 fold | HTT FOLD INCREASE [4]: 1.0 fold | MAP1LC3A FOLD INCREASE [4]: 1.1 fold | MAP1LC3B FOLD INCREASE [4]: 1.2 fold | PIK3C3 FOLD INCREASE [4]: −1.2 fold | PIK3R4 FOLD INCREASE [4]: 1.1 fold | PTEN FOLD INCREASE [4]: 1.1 fold | RAB24 FOLD INCREASE [4]: 1.2 fold | RGS19 FOLD INCREASE [4]: 1.2 fold | SNCA FOLD INCREASE [4]: 1.6 fold | SQSTM1 FOLD INCREASE [4]: 2.4 fold | TP53 FOLD INCREASE [4]: 1.1 fold | ULK1 FOLD INCREASE [4]: 1.1 fold | UVRAG FOLD INCREASE [4]: 1.8 fold | VPS11 FOLD INCREASE [4]: 1.4 fold | VPS18 FOLD INCREASE [4]: 1.4 fold | WIPI FOLD INCREASE [4]: 2.5 fold | number of autophagolysosomes [5]: higher | number of autophagosomes by electron microscopy [6]: An increase in the number of autophagosomes

B3: TFEB S142D: phospho-mimetic mutant of TFEB (protein, UniProt P19484 1-476, looked up, variant S142D)
Transcription factor EB: B1 Transcription factor EB with A142D
modifications: 3xFlag tag
translocation into the nucleus upon nutrient starvation (HeLa cells [1]; nutrient starvation): unable to translocate into the nucleus

B4: S211A: TFEB with serine-to-alanine mutation at position 211 (protein, UniProt P19484 1-476, looked up, variant S211A)
Transcription factor EB: B1 Transcription factor EB with A142S, S211A
TFEB subcellular localization of serine-to-alanine mutants (HeLa cells [1]): constitutive nuclear localization
